Test results from US20140328939A1, “METHOD FOR PREPARING BIOCOMPATIBLE SMALL INTESTINAL MUCOSA HYDROGEL CAPABLE OF CONTROLLING IN-VIVO DEGRADATION PERIOD” (AJOU UNIVERSITY INDUSTRY-ACADEMIC COOPERATION FOUNDATION, priority 2011, published 2014).

Assay: In-vivo drug release test (FITC-labeled albumin)
Conditions: 0.5 mL subcutaneous, SD rats; FITC-BSA 1 mg/mL
Protocol: The prepared small intestinal submucosa powder was dissolved in phosphate buffered saline to 10, 15 and 20 wt %, respectively, to prepare homogeneous solutions. Then, FITC-labeled albumin (FITC-BSA) was added to a concentration of 1 mg/mL. 0.5 mL of the albumin-containing small intestine submucosa solutions were subcutaneously injected to nine SD rats (male, 8 weeks old, 350-380 g) using a syringe (21 G, 1-cc needle). For comparison, 0.5 mL of a solution containing FITC-labeled albumin of the same concentration was subcutaneously injected to three rats. When only albumin was subcutaneously injected, the drug was not released any more after 1 day. In contrast, in case of the albumin-containing small intestinal submucosa hydrogel, the drug was continuously released for about 9 days.

albumin: FITC-labeled albumin (FITC-BSA) solution, model drug injected alone for comparison
duration of drug release (albumin concentration in blood): ≤ 1 days
